# Reference: the DeepSol protein solubility set
# Assay: soluble on expression in E. coli; label from the status in PepcDB or PDB records
row,Sequence,soluble on expression in E. coli
1,MMLSKVLRNSPLLFRVAQPKDHERIIKFLDKHFAKEEPCSRALKISPEISRGVFTATVTRCLTTPFSTVVLQENGDLAACLLASVWNRTDPLENADFDDTGLPENFKLFIQFLNKAHLNFWKIAPPNVNSIIHREIGSVAPQFTRLGIATKMVTTNMTKRNLKKYNIGGVLSETTSLANQIVLEKAGFKCLKELPYSTIVDSKGNQVLKLDDGTTSLCLNFKPIEEYENLPE,not soluble
2,MMLYFITFREARVLLKSRDLALINVDLMKTGKKIRVRVSKDYVEFPDGSRVKKEIIKRIAEDEGNVYFVRDGEVFKAAIAGEHFYKLVPTIPPTIEINGIRMHRTKGTDPLKDTIAKVNTVKPREGEVVLDTCMGLGYTAIESAKRGARVITIEKDPNVIELAKINPWSRELFESPKIKILQGDSFDLIKKFEDESFDVIIHDPPRFSLAGELYSEEFYMEMFRVLKPGGRLFHYVGNPGKRYRGLDLQKGVMERLRRVGFMKVRRVQEALGVFALKPSLE,soluble
3,MMMSSEMIHVEVVYALPHEQRVLKLVVEQSATVEEIIRTSGILQMYPEIDLTVNKVGIFSRNVKLDARVRDKDRIEIYRPLLADPKEIRRKRAEQAKAAANQS,not soluble
4,MMNEPQVSFITVCYNGFKDTCELIESLQTHVHSVSYEIIVVDNASREDEATKIKELYSDIVTLRSESNLGFSGGNNLGIRVAKGAYIFLINNDTYVESDGFHYLTERLESQKNIGAVSPKIRFAFPPQNIQFAGFTSLSAITIRNEMTGFGCPDDGTFDTPHTTPYLHGAALMVKREVIEKVGEMPEIFFLYYEEMDWCTQMTNAGYELWYEPRCTVFHKESQSTGQFSKLRTFYMTRNRLLYTRRNRKGAQRLLSILYQSTIAAGKNSLQFAVKGRFDLFAAVWKGVVRSFSVTSPIRLEHHHHHH,not soluble
5,MMNMITVIGFGSFGRKVVNFIKNKEPITIIDKNIDDADDLVKEGVTVIVGDATQDEVLKKAKIENADIVLILTNEPEVNRRIAERVCELSPNSYKIARAIPRYPELYMGLNIDKIINILESGAKDIAKEVEDAKLKRKLMQLKSVLIEGKKRCMKLEKTEEEKKAPLLILTHINPDPDAIASAMALKTLAERWGVDSDIAYGGNIGYDENKAMINLLGIKLLNVEDIDLDNYCVIAVIDTSTSKQLPIELPNIDIIIDHHNNTDLTAKYMDVRPEVGATASILTQYLMELDIEPSRNLATALFYGIQSDTDYFKRETSKLDFEAAAYLQSYIDASILNMIENPEISTEVMEVLAKAVMNRRVVKGNIALAYVGEISNRDALPKAADFLLKMEGISTTFVFGIVGDEIHISARTKDLRLNLGEILNKAFGGGGHQTAAAAKIPLGIFKAVSDKEALRKLVEEAIRAKILEVIGIKEEEK,not soluble
6,MMNQSRIKPVRMLILLRKLSPISRRIRIRNRLKQKTRSATIKSRCNPCLISVLANCYWCSSSASPPSGAATTACGGKNGSGLDSRVAFTGDNGAERTDPGVKTPGVSGQSEKG,not soluble
7,MMNYDRILIRYGEMTTKGKNRNIFVRRLKNNIARKLQAFERIQIEYMRDRMYILLNGEPHEPIIEKLKTVFGIHSFSLAMKCENDLDAIKETALAAVRQLPYKGKTFKVSARRVDKQFPDRSDELNYEVGAHILRHTDGLTVNVREPDIDVRIEVRQDGTYVTCRDIFGAGGLPVGTSGKAMLMLSGGIDSPVAGYLSMKRGLEIEAVHFFSPPFTSERAKQKVIDLVRKLTTYGGRIKLHIVPFTEVQQAIYQGVPNEYSLISTRRAMLRITDALRRRQRALAIVTGESLGQVASQTLESMYVINEVTNTPILRPLVSMDKLEIIELAKQIGTHDISILPYEDCCTIFTPRAPKTKPKKEKVFHYESQLDLAPLLEKAVNDTETLVIDEETGQGDEFAELF,not soluble
8,MMPLNRQSTTPLYIQLYQQMRDDYDATQANHQLWSIRKMAQNLGVSKTTVEQAYDQLLAEGYVYTVPGSGYFYRDRTHWPAAKQALETVPQPTKPRAFTYDFRYGVTQLLSPSWNAWKRAVRLALRQTEQQPTAVYPDAQGLPALRENLVRFLKTTRGVRCTADQIVITSGAKAGLSILLSILPRGTVGIENPGYRGLSELAASYGQTAVPIRVTEDGLDLTQVRARNPQIIYTTPGHQFPLGVVLPIEKRLALLQWAGTQHLIIEDDYDSEYRYSAHPLPALQSLATANQVAYLGTFSRGIDPTLRMGYLVLPPQLVATYHQRYQYRAEMVAGLLQQAMANYFEDGAYYRHLSRNRAANRQKYRVLCHQLAQTKQIRPIATGAGVHLVVQIPGIAQAKLLEALEQQQVRIYPLSSNWRDMPTTDYYLLGFAGLTLSELTTGVKRLVQVCEQLVR,not soluble
9,MMPTEYPATAEESVDVITDALLTASRLLVAISAHSIAQVDENITIPQFRTLVILSNHGPINLATLATLLGVQPSATGRMVDRLVGAELIDRLPHPTSRRELLAALTKRGRDVVRQVTEHRRTEIARIVEQMAPAERHGLVRALTAFTEAGGEPDARYEIE,soluble
10,MMRMKVKVVVNGKEYEVEVEEVMPGKFRVTLEGETYEVETSAGFVTSPKQVQVPTPAPTPAPAPTPTPAPAPSSKTVVSENVVSAPMPGKVLRVLVRVGDRVRVGQGLLVLEAMKMENEIPSPRDGVVKRILVKEGEAVDTGQPLIELG,soluble
11,MMRRTLENRNAQTKQLQTAVSNVEKHFGELCQIFAAYVRKTARLRDKADLLVNEINAYAATETPHLKLGLMNFADEFAKLQDYRQAEVERLEAKVVEPLKTYGTIVKMKRDDLKATLTARNREAKQLTQLERTRQRNPSDRHVISQAETELQRAAMDASRTSRHLEETINNFERQKMKDIKTIFSEFITIEMLFHGKALEVYTAAYQNIQNIDEDEDLEVFRNSLYAPDYSSRLDIVRANSKSPLQRSLSAKCVSGTGQEAGWAATCQTLI,soluble
12,MMSDRDYTLIIDKSGSMSTPDQAGGRSRWEIAQESTLALARKCEQFDPDGITVYLFSGKFKRYDDVTSAKVAQIFLENDPAGTTNLAGVLQDALNNYFQRKAAGKTKPNGETILVITDGEPDDRKAVFETIIHATRQMERDEELGISMIQVGSDAQATKFLKALDDQLQSVGAKFDICDTITLEDLEDMSLADVLMNAITDLEHHHHHH,soluble
13,MMSETGFIDVKIFPQRLLKPETAEKLLNRIYELEGIVRVLVHGPSIPDRVYYGPARGTEVNHSDRRKITVRGEEFELRVKVGEIIVGMLPETLEEKMETIEEILDEVLPCSYKVFIGAFTKKDITISDYLKYGLKFEEKIDPRVIGMVDPSSRMKDTVVNIKLEHHHHHH,soluble
14,MMSPRIGLTLQKIVETAAEIADANGVQEVTLASLAQTLGVRSPSLYNHVKGLQDVRKNLGIYGIKKLHNRLEEAAEDKRMDEAIHALGEAYVAFVRKHPGLYEATFLRDEEVRKAGDGIVKLCLQVLQQYGLEGENALHATRGFRSICHGFASIEQQGGFGLPLDLDISLHVLLETFIKGLRE,soluble
15,MMSVEHSANSQKKVIVGMSGGVDSSVSAYLLKQQGYQVEGLFMKNWEEDDNEEYCTAAEDLADAQAVCDKLGIPLHTINFAAEYWDNVFEYFLAEYKAGRTPNPDILCNKEIKFKAFLEFADEVLDADYIAMGHYVRRTFPQNGEKPQMLRGLDGNKDQSYFLYTLSHEQVARTLFPVGELEKPEVRRIAEEQGLITAKKKDSTGICFIGERKFTDFLSRYLPAQPGKIETPEGKVIGEHQGLMYHTLGQRKGLHIGGMKESSEQPWYVADKDLKRNVLIAVQGADHPLLKSHGLVAAQLHWVDRTPITEPVRCSVKTRYRQSDIACTIIPLSDDRIKVMFDEPQVAVTPGQSAVFYQGEICLGGGIIEERI,not soluble
16,MMVLRMKVEWYLDFVDLNYEPGRDELIVEYYFEPNGVSPEEAAGRIASESSIGTWTTLWKLPEMAKRSMAKVFYLEKHGEGYIAKIAYPLTLFEEGSLVQLFSAVAGNVFGMKALKNLRLLDFHPPYEYLRHFKGPQFGVQGIREFMGVKDRPLTATVPKPKMGWSVEEYAEIAYELWSGGIDLLKDDENFTSFPFNRFEERVRKLYRVRDRVEAETGETKEYLINITGPVNIMEKRAEMVANEGGQYVMIDIVVAGWSALQYMREVTEDLGLAIHAHRAMHAAFTRNPRHGITMLALAKAARMIGVDQIHTGTAVGKMAGNYEEIKRINDFLLSKWEHIRPVFPVASGGLHPGLMPELIRLFGKDLVIQAGGGVMGHPDGPRAGAKALRDAIDAAIEGVDLDEKAKSSPELKKSLREVGLSKAKVGVQH,soluble
17,MMVYIMNAFDIKSTKMDVLSISLHTSDLFDLEDVLVKLGKKFQESGVVPFVLDVQEFDYPESLDLAALVSLFSRHGMQILGLKHSNERWAAAAMKYHLLFCLSHSENVKELGQVEVQKTEDGQKARKTVLITSPVRTGQQVYAEDGDLIVTGAVSQGAELIADGNIHIYAPMRGRALAGAKGDTSARIFIHSMQAELVSVAGIYRNFEQDLPNHLHKQPVQILLQDNRLVISAIGSE,not soluble
18,MMYIDNEVLEKMIMTMVEGFNRLEKKLDRMNRLKDCLDGDTLLDNCDLAQLLGVTQRTIARYREKGLIRYYQTDENGKNFYRSSEIQDFLRHRGKKK,not soluble
19,MMYSFEANANAVKISETVSVDTGQGAKIHKFVPKNSKTYSSDLIKTVDLTHIPTGAKARINAKITASVSRAGVLAGVGKLARLGAKFSTRAVPYVGTALLAHDVYETFKEDIQARGYQYDPETDKFAKVSG,not soluble
20,MNAHEIDYRLYGDDMQFVEIELDPYESVVAEAGGMMMMDDGIVMETVFGDGSSSGKGLLGRLVGAGKRLLTGESLFMTVFTNQGSGKRRVAFAAPYPGKIIPVDLSELGGKLICQKDSFLCAAKGVSVGIEFQRKLGAGFFGGEGFIMQKLEGDGLAFLHAGGTIHRRDLQPGETLRIDTGCLVAMTKDVNYDIEYVGSIKTAFFGGEGLFLATVTGPGAVWVQSLPFSRLADRVLAAAPSAGGRSVGEGSILGGIGDWLDGDD,not soluble
21,MNAIIFCLLFTTVTATYEVFGKGIEHRNEHLIINQLDIIPVESTPTPNRASRVQKRLCGRRLILFMLATCGECDTDSSEDLSHICCIKQCDVQDIIRVCCPNSFRK,not soluble
22,MNAIILAAGFGSRLMPLTKDQPKCMVEYKNKKIIDYEIEALKSAGINEIAVVGGYLNDVLKNYLNKYDIEHFFINSKYDKTNMVHTFFCAKDFMLKCIEEKQDLIISYADIVYFQDCVQKLINAKEELAIVVDKSWCKLWSKRFANPLEDAETLKMTNGYIIELGKKANAYDEIEAQYIGLFKFSYQFLSEVIAFYEMLDRDILYDNKNFENMYMTSFLQALIEKYNNAKAVEIDGNWCEIDFMSDLEVQIEKLEHHHHHH,not soluble
23,MNAKKRKGSAVERNIVSRLRDKGFAVVRAPASGSKRKDPIPDIIALKNGVIILIEMKSRKDIEGKIYVRREQAEGIIEFARKSGGSLFLGVKKPGVLKFIPFEKLRRTETGNYVADSEIEGLDLEDLVRLVEAKISRTLDNFL,soluble
24,MNARLENLMQWLKEKNVEAAFLTSTPNVFYMTNFHCEPHERLLGMFVFQEKEPILICPKMEEGQARNAGWAHEIIGFTDTDRPWDMIAKAIKDRGINANAVAIEKELLNVERYEELTKLFPNAAFTSAEEKVRELRLIKDEKELSILREAAKMADYAVEVGVNAIKEDRSELEVLAIIEHELKTKGIHKMSFDTMVLAGANSALPHGIPGANKMKRGDFVLFDLGVIIDGYCSDITRTVAFGEISEEQTRIYNTVLAGQLQAVEACKPGVTLGAIDNAARSVIADAGYGDFFPHRLGHGLGISVHEYPDVKAGNESPLKEGMVFTIEPGIYVPNVGGVRIEDDIYITKDGSEILTKFPKELQFVK,soluble
